Experimental findings from article PMC2186165 are described below.

The target of the experiment is B lymphocyte surface IgM (mouse (endogenous in spleen cells)). Briefly: cocapping.
Chain of B lymphocyte surface IgM (mouse (endogenous in spleen cells)) (P01872 whole entry): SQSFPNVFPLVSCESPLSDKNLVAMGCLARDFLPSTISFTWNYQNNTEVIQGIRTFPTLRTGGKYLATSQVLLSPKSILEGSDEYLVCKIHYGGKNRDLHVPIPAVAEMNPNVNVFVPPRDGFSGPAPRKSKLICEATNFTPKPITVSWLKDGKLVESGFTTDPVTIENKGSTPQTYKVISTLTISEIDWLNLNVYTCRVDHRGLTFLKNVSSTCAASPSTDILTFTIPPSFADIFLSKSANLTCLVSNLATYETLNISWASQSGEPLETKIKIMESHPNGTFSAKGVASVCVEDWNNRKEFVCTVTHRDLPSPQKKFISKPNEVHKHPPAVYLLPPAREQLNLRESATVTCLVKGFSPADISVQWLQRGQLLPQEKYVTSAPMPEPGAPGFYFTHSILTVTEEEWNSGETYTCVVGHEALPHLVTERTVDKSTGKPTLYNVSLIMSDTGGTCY

On to “B lymphocyte Fc IgG receptor (from UniProt P08101 30-330)”, for which the % of B lymphocytes with capped sIgM that also had capped FcGR (12 experiments) is 86%; the % of FcGR-positive cells with FcGR capped (Table III, experiment B, part 4) is 62%; the % of FcGR-positive cells with FcGR capped (Table IV, part 4) worked out at 46%.
